Values of other authors, collected in PMC3535496.

Target: Jun TAD (Homo sapiens) (UniProt P05412)
UniProt P05412, sequence (P05412 47-89): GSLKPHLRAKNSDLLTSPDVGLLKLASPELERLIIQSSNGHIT

Substance: CBP KIX (from UniProt Q92793)
- Kd: 30 µM
